Assay results taken from the supplement of paper PMC12042874.
± gives the uncertainty stated by the source.

Assay: amyloid nucleation score (Sup35N fusion, yeast selection) (log enrichment); library NNK1; higher = more nucleation; inactive = no reads after selection
Procedure, shortened: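 For the nucleation score, DiMSum gave the log enrichment of output over input reads, centred on the mode score of non-aggregating sequences. Psi-negative yeast expressing Sup35N fused to peptides of 20 random codons were induced with 100 μM copper sulfate for 24 hours and grown 7 days at 30°C on medium lacking adenine and uracil. Input and output plasmid inserts were Illumina-sequenced, and sequences with under 100 input reads were excluded.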

Substance	amyloid nucleation score
HEGPCKRNCTGVLLRSARRH	-0.049 ± 0.26
HEIKIRHFIRMTGSGSYQSL	0.176 ± 0.29
HERFLRIQRVHREKKCKVCL	0.267 ± 0.77
HEYNCRG	inactive
HFCKYSQNIELRQALGCYFW	6.16 ± 0.065
HFEQGYAHSSYMWVLGRPMW	2.86 ± 0.087
HGIFEGRITVILKGY	4.05 ± 0.15
HGLGALYTSVRRARLGFFYC	4.23 ± 0.15
HGMWNTQVTVTWYTSADLFV	-0.093 ± 0.52
HGRIGLVWESGKCMTYLREV	0.191 ± 0.37
HGVLCSWSRLKTRFDQNGIS	0.616 ± 1.2
HHIRCRVRIQNNPS	0.368 ± 0.55
HHLTRTTPYPTSTWLAQLLS	0.994 ± 0.63
HICTTFCTSMFSRTSQWSGG	0.673 ± 0.3
HIDWSNVSYGDDRYGSGDCR	0.142 ± 0.19
HIESNYRSERTDGWYICRSG	1.11 ± 0.2
HIFHCGNRRFHTIKM	inactive
HIKHSMMFGTYTK	-1.2 ± 0.72
HIMEIVESFTIETRMIKGCV	0.874 ± 0.53
HIQLIYVTIVLESRLSWWRI	0.934 ± 0.53
HIWLVVKKFPNIEHSIMIGS	-0.334 ± 1.2
HKCDSVKVGGSCNKTAYSRC	0.787 ± 0.59
HKFSNELLL	-0.145 ± 0.76
HKLDQLKASRLPSLVNWRVG	1.12 ± 0.7
HKLFNALNPKKG	0.532 ± 1.2
HKRLVGSYWFIFYSVTRYQE	-0.685 ± 1.7

Substance	amyloid nucleation score
HKSIMAYRN	0.677 ± 0.68
HLCFIADGQLRTVVVELFPI	0.576 ± 0.42
HLDGSVISNSMVNIVFLSLV	5.71 ± 0.072
HLICRFVHVNHCLVQQPKGS	1.37 ± 0.33
HLLNYIVGL	0.294 ± 0.69
HLRFYAYRGMGRPNFFLCFE	0.183 ± 0.38
HLRIGLNDVSLIISLTDKRT	-1.07 ± 0.47
HMFIFPYGAFMMERLFSGAI	0.198 ± 0.97
HMVFC	-0.446 ± 0.33
HNFLLYVSSYSFFHRLFMLH	0.149 ± 0.46
HNHRRQDGIRNA	1.12 ± 0.14
HNRMMMRADVTAVDTRYFTS	-1.57 ± 1.3
HNSNECYYF	-1.06 ± 2.4
HPVIADDLSYAAVIKRYLGV	0.267 ± 0.41
HQIFIWVVGLGTFETPRNHK	5.96 ± 0.066
HRNRFYVVLYRNLDLWL	-0.197 ± 0.23
HRRRYAVNFSVEIMIRALG	-1 ± 1.6
HRTFA	0.465 ± 0.35
HRVVSVRRCMKHPLSMERVA	0.447 ± 0.51
HSEIHVALYCASVML	3.38 ± 0.097
HSGFNVAAYFTSMN	0.467 ± 0.9
HSGSDSAITVVSLGIRE	-0.19 ± 0.91
HSGTVVYNMEMKKINSCYLL	2.58 ± 0.1
HSHRYNILQASWKA	0.17 ± 0.38
HSKRYCGACDLGYLCYRCNI	-0.333 ± 0.24
HSLEDMKHRLGLGGWSSCKV	0.183 ± 0.57

Substance	amyloid nucleation score
HSNIRMCKAECSRGELH	0.812 ± 0.61
HSQLLGMPFTSSVDS	0.635 ± 0.97
HSVNACLTGRKGAPLRDKPG	0.166 ± 0.78
HTHESNRPHYYCGADCLPKD	2.71 ± 0.14
HTQDYEEFIFCLM	inactive
HTTSICVRELPDQEVWTAVN	0.109 ± 0.54
HTYSWKISDSSYPTFPELFW	0.121 ± 0.39
HVFPHLWKYYCMAVALVFLR	1.38 ± 0.61
HVFSLKRPDGCRRR	0.711 ± 0.38
HVHTDSIDRVWRVLFTIKSK	0.776 ± 0.61
HVLWGIVLVVIFFW	-0.151 ± 0.29
HVQEDLNAVGHPLEFEMTVR	-0.979 ± 1.9
HVSVRSLRAVGVLRRRCGNG	inactive
HVTVNGWGAVSFLKNAKVVR	inactive
HVVFVMDVRYPKIAVVYLLA	1.1 ± 0.66
HWSSFPNVLYIM	-0.106 ± 0.44
HWSSSVSVNGVRYTFMSTSR	-2.08 ± 2.7
HWTTHESRKMVGQRFQPVGG	0.078 ± 0.34
HWWYFCINP	inactive
HYLVLYVIMYMFVQMSLPC	2.14 ± 0.49
HYRYFCGLTYVDSAARLQGG	-1.5 ± 1.8
HYSGIVWCSVREL	1.72 ± 0.52
HYVVG	-0.784 ± 0.74
IAREVSSVTVSPQEGTRWWG	0.276 ± 0.3
ICFRSFRHGNYGLMRG	1.35 ± 0.9
ICHFVLYVQRPNSGWHYKSL	1.91 ± 0.53

Substance	amyloid nucleation score
ICIASFCKKNVTCGLIWLIV	1.51 ± 0.7
ICISSPVMMKAIPLPFEFSR	-0.167 ± 0.43
ICLIAWGQ	1.66 ± 0.41
ICLLLCLVWDGCIATISNGL	-1.39 ± 2.1
ICQRSRAGSGSEVLT	-0.205 ± 0.49
ICSNVLFVLILEKEASFGCY	4.21 ± 0.051
ICSWPNRRVAVPH	-0.482 ± 1.2
ICTFVMKLTAFVIIVLVFFH	-0.125 ± 0.26
IDKNVIIIKVLCMLIVFPTG	-0.771 ± 0.82
IDTNCRNCGYREFASKCELR	0.456 ± 0.26
IDVRI	-0.152 ± 0.43
IEAYVINGKLDWALWFRGDE	-0.407 ± 0.85
IEDTGIYRSVTFTVAMTYTV	-0.373 ± 0.38
IEESSWLLDFRSGSALSEVS	-0.542 ± 0.86
IEFLAILLVAAMVQ	-0.345 ± 1.2
IELVNYFHYFRWVGLLDRRC	-0.077 ± 0.38
IESWCLMSVNSDGARWSSRF	-0.872 ± 0.83
IFEIAESDLVYDHFSHYFKR	-0.033 ± 0.67
IFFKLVLVWTFLLTYQAYWV	0.174 ± 0.85
IFGGLH	0.631 ± 0.5
IFGITNSMLVFMGYCLIHCL	-0.895 ± 1
IFITCIARTLYHAGNLQRNL	2 ± 0.11
IFLGIFSGILYRLSHRLCS	inactive
IFRSFLDG	-0.437 ± 0.3
IFSGWCVRVFCSFLKHNCLN	-0.408 ± 0.47
IFSHIPCLITFSNDQ	2.13 ± 0.43

Substance	amyloid nucleation score
IFVSHYNVR	0.734 ± 0.25
IFVSSVRGAPYIYKCTKSRM	-0.504 ± 0.52
IGAGPRL	-0.623 ± 0.27
IGCLKFSFFHNLGFGSIDYR	-0.742 ± 0.53
IGPGTWGLSLYRDRILITTM	-0.037 ± 0.89
IGSMRMVSGLRFMRFVDHFS	-0.316 ± 0.42
IGSVCLQ	inactive
IGVRRFFLWS	-0.753 ± 0.48
IHLCYRDYRMHVARLSAETG	0.02 ± 0.53
IHMLIVLSF	-0.103 ± 1.4
IHRFKFGG	1.98 ± 0.2
IHVPNYVDRELELRASNSSR	-0.298 ± 0.32
IHWANPLTVSAFKVWVEDMV	0.256 ± 0.29
IICSSM	inactive
IIFHICRTGEDLTKSGCLSW	-0.494 ± 1.1
IIFNYPNPIYLNAKEVMLYI	6.52 ± 0.067
IIGRLNLKMISGLI	2.15 ± 0.58
IIHFKSGIWNATDGCLIMCV	0.793 ± 0.65
IILFSSVGCSMCMTSGLEGF	6.964 ± 0.066
IILLNNYTDMHIPEGIGVTM	0.466 ± 1.4
IIMRTMHHAKRLSGLKP	0.996 ± 0.44
IIPPV	inactive
